Measured values reported in patent US20240409645A1 (DUALYX, published 2024).
Positions count from the first letter of the chain named.

T1: mouse IL-2Rα (mouse, UniProt P01590 22-236, limits assumed)
T1 construct: Recombinant mouse IL-2Rα protein, coated on the ELISA plate or amine-coupled to a CM5 chip; also called mo IL-2R; moIL2R-a
T1 sequence (looked up): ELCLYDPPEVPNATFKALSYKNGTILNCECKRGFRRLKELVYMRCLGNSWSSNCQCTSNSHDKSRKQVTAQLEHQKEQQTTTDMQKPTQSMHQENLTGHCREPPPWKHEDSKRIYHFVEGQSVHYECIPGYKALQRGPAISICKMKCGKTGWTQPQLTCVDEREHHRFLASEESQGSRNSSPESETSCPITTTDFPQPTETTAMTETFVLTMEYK

T2: human interleukin-2 receptor α-chain (IL-2Rα; CD25), recombinant protein (human, UniProt P01589 22-240, limits assumed)
T2 construct: also called huIL2R-a; hIL-2RA
T2 sequence: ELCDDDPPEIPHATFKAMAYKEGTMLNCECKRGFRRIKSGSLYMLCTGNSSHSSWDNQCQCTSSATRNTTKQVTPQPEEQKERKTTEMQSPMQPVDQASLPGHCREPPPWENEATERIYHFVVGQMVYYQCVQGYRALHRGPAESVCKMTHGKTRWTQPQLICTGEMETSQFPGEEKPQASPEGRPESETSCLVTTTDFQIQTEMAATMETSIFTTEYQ

T3: human common cytokine receptor γ-chain (γc; IL-2Rγ; CD132), recombinant protein (human, UniProt P31785 23-262)
T3 construct: also called human IL-2R subunit CD132
T3 sequence: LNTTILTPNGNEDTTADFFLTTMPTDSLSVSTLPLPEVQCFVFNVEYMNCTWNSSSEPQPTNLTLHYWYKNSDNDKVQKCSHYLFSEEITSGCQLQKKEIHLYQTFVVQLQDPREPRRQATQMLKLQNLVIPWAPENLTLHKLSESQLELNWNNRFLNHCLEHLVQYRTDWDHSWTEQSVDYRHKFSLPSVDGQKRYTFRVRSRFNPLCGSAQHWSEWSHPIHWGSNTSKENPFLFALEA

T4: mouse IL-2Rα, recombinant protein (mouse, UniProt P01590 22-236, limits assumed)
T4 construct: also called moIL2R-a
T4 sequence (looked up): T1 sequence (looked up)

T5: mouse IL-2Rγ, recombinant protein (mouse, UniProt P34902 23-263, limits assumed)
T5 sequence (looked up): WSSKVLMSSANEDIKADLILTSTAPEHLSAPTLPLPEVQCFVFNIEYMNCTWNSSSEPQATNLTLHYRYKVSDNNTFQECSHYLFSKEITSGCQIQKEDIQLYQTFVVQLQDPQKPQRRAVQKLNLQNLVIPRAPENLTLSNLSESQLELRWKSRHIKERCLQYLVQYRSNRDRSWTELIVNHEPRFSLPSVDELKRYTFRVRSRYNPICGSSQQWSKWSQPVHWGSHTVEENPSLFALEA

T6: human interleukin-2 receptor α-chain (human, UniProt P01589 22-240, limits assumed)
T6 construct: Recombinant human IL-2Rα protein, coated on the ELISA plate or amine-coupled to a CM5 chip; also called human IL-2Rα; hu IL-2R
T6 sequence: T2 sequence

B1: FJ1427_P035MP05F12 (VHH)
VHH: QLQLVESGGGLVQAGGSLRLSCLASGLTFDGYAIGWFRQAPGKELEGVSYITGSDGSSYYADSVKGRFTISSDNAKNTVYLHMNSLKPDDAAVYYCAIDHLGSRGGYHSSWWRSSDMDLWGKGTLVTVSS
notes: Tested as soluble VHH in a crude periplasmic extract (P.E.); CDR3 family 4; also called Clone nr
B2: 11-MP05H04 VHH (periplasmic extract) (VHH)
VHH: QLQLVESGGGLVQAGGSLRLSCAASGLTFEGYAIGWFRQAPGKEREGVSYITGSDGTTYYINSVKGRFTISSDNAKSTVYLQMNTLKPEDTAVYYCAVDRLGSQGRYASAWWRSGDMDLWGKGTQVTVSS
notes: soluble VHH in periplasmic extract
B3: 12-MP05B12 VHH (periplasmic extract) (VHH)
VHH: QVQLVESGGGLVQAGGSLRLSCAASGFTFDGYAIGWFRQAPGKEREGVSYITGSDGSTYYADSVKGRFTISSNNAKNTVYLHMNSLKPDDAAVYYCAIDRLGSRGAYVPIWWRSSDMDLWGKGTLVTVSS
notes: as for B2
B4: 4-MP01F04 VHH (periplasmic extract) (VHH)
VHH: QVQLVESGGGLVQAGGSLRLSCAASGGTFRTRNMGWFRRAPGKEREFVAAVSWNVDNKLYADSVKGRFTISRDNGRNMVYLQMNSLKPEDTAVYYCAADNIPLSSDMRPTATEYDYWGQGTQVTVSS
notes: as for B2
B5: 9-MP05G01 VHH (periplasmic extract) (VHH)
VHH: EVQLVESGGGLVQAGGSLRLSCAASGGSIYTYNMGWFRQAPGKEREFVAGTLWSGGDSVYADFAKGRFTLSRENAKNTLYLQMNSLKPEDTATYYCAIDPLSLTSDWRVDELSSWGKGTLVTVSS
notes: as for B2
B6: 28-MP04D02 VHH (periplasmic extract) (VHH)
VHH: QVQLVESGGGLVQAGGSLRLSCAASGRTLSRYAMGWFRQAPGKEREFVTANSWGGDTYYADSVQGRFTFSRDNAKNTVYLQMNSLQPEDTAVYYCAAAPTSFATTAYSGSNSYAYWGQGTQVTVSS
notes: as for B2
B7: 37-MP07F09 VHH (periplasmic extract) (VHH)
VHH: B6 VHH with F47Y, T49A, A50I, N51D, Y58F, Q64E, T77E, A97G, G109S, A114R
notes: as for B2
B8: 38-MP07A11 VHH (periplasmic extract) (VHH)
VHH: QVQLVESGGGLVQAGGSLRLSCAASGRSLSRDAMGWFRQAPGKEREFVAVMSWGGDTFYTDSVEGRFTFSRDNAKNAVYLEMNDLQPEDTAVYYCAAAPTSFATTAYSSSNSYSYWGRGTQVTVSS
notes: as for B2
B9: 34-MP04A12 VHH (periplasmic extract) (VHH)
VHH: QVQLVESGGGLVQAGSSLRLSCAASGRTLSRLAMGWFRQAPGKEREFVAVNSWGGDTFYADSVEGRFTYSRDNAKSAVYLQMNSLQPEDTAVYYCAAAPTSFATTAYSSSNSYAYWGQGAQVTVSS
notes: as for B2
B10: FJ1427_P035MP05C12 (VHH)
VHH: EVQLVESGGGLVQAGDSLRLSCAASGFNFGWHAMGWFRQAPGKEREFVATITWTGRDTYYADSVRGRFTISKDNAKNTLFLQMSSLRPDDTGVYYCAKARERATWAYSEDDCDYWGQGTQVTVSS
notes: Tested as soluble VHH in a crude periplasmic extract (P.E.); CDR3 family 1; also called Clone nr
B11: FJ1427_P035MP05E12 (VHH)
VHH: B10 VHH with E1Q, V2L, N77D, S84N
notes: as for B10
B12: FJ1427_P035MP05F11 (VHH)
VHH: QVQLVESGGGSVQAGGSLRLSCAASGRTLYSSYGMAWFRQAPGKERDFVGSISRYGTYTSYADSVKDRFTISRDNAKSTVYLQMNNTKPEDTAVYYCAAYTYSGSFYSAVKTHRDEYQYWGQGTQVTVSS
notes: Tested as soluble VHH in a crude periplasmic extract (P.E.); CDR3 family 15; also called Clone nr; 470
B13: FJ1427_P035MP05D12 (VHH)
VHH: B12 VHH with V2L, A109T
notes: Tested as soluble VHH in a crude periplasmic extract (P.E.); CDR3 family 15; also called Clone nr

Biological target: T1, mouse IL-2Rα
Assay: SPR (Biacore 3000) off-rate ranking, periplasmic extract over immobilised mouse IL-2Rα

Binder | koff
B1 | 0.00463 s⁻¹

Biological target: T2, human interleukin-2 receptor α-chain …
Assay: P.E. off-rate SPR
Summary of the method: (§1)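 CM5 chip, amine coupling (acetate buffer), ~2500 RU receptor. VHH P.E. flowed at 30 uL/min; off-rate read over 120 s.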

Binder | koff
B2 | 0.0012 s⁻¹
B3 | 0.000222 s⁻¹
B4 | 0.000258 s⁻¹
B5 | 0.000169 s⁻¹

Biological target: T3, human common cytokine receptor γ-chain …
Assay: P.E. off-rate SPR
Summary of the method: as §1

Binder | koff
B6 | 0.0088 s⁻¹
B7 | 0.00126 s⁻¹
B8 | 0.00235 s⁻¹
B9 | 0.000333 s⁻¹

Biological target: T4, mouse IL-2Rα, recombinant protein
Assay: P.E. off-rate SPR
Summary of the method: as §1

Binder | koff
B2 | 0.00163 s⁻¹
B3 | 0.000547 s⁻¹
B4 | 0.256 s⁻¹
B5 | 0.0442 s⁻¹

Biological target: T5, mouse IL-2Rγ, recombinant protein
Assay: P.E. off-rate SPR
Summary of the method: as §1

Binder | koff
B6 | 0.319 s⁻¹
B7 | 0.007 s⁻¹
B8 | 0.0149 s⁻¹
B9 | 0.00809 s⁻¹

Biological target: T6, human interleukin-2 receptor α-chain
Assay: SPR (Biacore 3000) off-rate ranking, periplasmic extract over immobilised human IL-2Rα
Procedure: SPR was performed to determine dissociation rates using Biacore 3000 instrument (GE Healthcare). Briefly, human and mouse IL-2R proteins were immobilized on carboxylmethyl dextran sensor chip (CM5) at approximately 2500 RUs using amine coupling in acetate buffer (GE Healthcare). The VHH-containing P.E. were loaded with a flow rate of 30 uL/min and the off-rates were measured over a 120s period.

Binder | koff
B1 | 0.000469 s⁻¹
B10 | 0.000874 s⁻¹
B11 | 0.000273 s⁻¹
B12 | 0.00173 s⁻¹
B13 | 0.00235 s⁻¹

Biological target: T6, human interleukin-2 receptor α-chain
Assay: binding ELISA, periplasmic extract 1:5 on coated human IL-2Rα, anti-c-myc detection
Procedure: In a binding ELISA, human or mouse IL-2Rα, IL-2Rβ and IL-2Rγ proteins were coated directly on maxisorp microtiter plates overnight at 4° C. Free binding sites were blocked using 4% Marvel in PBS for 1 hour. Next, 1:5 dilution of P.E. in 1% Marvel/PBS were added to wells and incubated for 1 hour. […] Binding specificity was determined based on O.D. at 450 nm values compared to negative controls.

Binder | PE binding ELISA (OD450 nm)
B1 | 2.19 OD450
B10 | 2.4 OD450
B11 | 2.15 OD450
B12 | 2.27 OD450
B13 | 2.39 OD450

Biological target: T2, human interleukin-2 receptor α-chain …
Assay: P.E. binding ELISA
Summary of the method: (§2)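 Read-out: OD at 450 nm, specificity called versus negative controls. Receptor chains (human or mouse IL-2Rα, β, γ) were coated directly overnight at 4° C; 4% Marvel/PBS block 1 h; P.E. at 1:5 dilution in 1% Marvel/PBS incubated 1 h.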

Binder | OD450 nm
B2 | 2.22 OD450 nm
B3 | 2.14 OD450 nm
B4 | 2.49 OD450 nm
B5 | 2.35 OD450 nm

Biological target: T3, human common cytokine receptor γ-chain …
Assay: P.E. binding ELISA
Summary of the method: as §2

Binder | OD450 nm
B6 | 0.782 OD450 nm
B7 | 1.81 OD450 nm
B8 | 1.31 OD450 nm
B9 | 1.3 OD450 nm

Biological target: T4, mouse IL-2Rα, recombinant protein
Assay: P.E. binding ELISA
Summary of the method: as §2

Binder | OD450 nm
B2 | 0.163 OD450 nm
B3 | 0.936 OD450 nm
B4 | 0.046 OD450 nm
B5 | 0.047 OD450 nm

Biological target: T5, mouse IL-2Rγ, recombinant protein
Assay: P.E. binding ELISA
Summary of the method: as §2

Binder | OD450 nm
B6 | 0.054 OD450 nm
B7 | 1.49 OD450 nm
B8 | 0.173 OD450 nm
B9 | 3.6 OD450 nm
